Laboratory results as given in the DeepSol protein solubility set.

assay: soluble on expression in E. coli; label from the status in PepcDB or PDB records

Sequence | soluble on expression in E. coli
GPGSMDVLVPRAASSGAVGRTPAARTFSAAPPSASSSLCVVGSADHGLKVFNLCTMRELKTLYTKTCGHTEWVTACRFLSDRRVISGGMDSKLCLWNDVTRGGPGRCVDLLGHTGSISQVEVNERHGRSIAMSSSYDRTIRVWELDGIAGGREMGCLSGHKGPVTQFSWLETEVLSGDRQGTVKLWDVETAQCHLTASSKRGQIGSLAHLVHPGVGHLALFGDQGGALTVVDARGPSSAKPLFQDVLHPGGMVTFIRAPSPTAVSAPLIVTCGADKRIIVRDARHNFAEVCAITDHDDFVYSMEVIGNILLSGAGNGRLLVHDVETGELLYELKANAAAVREMFASPSVLVAAGDDGNAKVFDFM | not soluble
SAEGDAGSDQRQNEEIEAMAAIYGEEWCVIDDCAKIFCIRISDDIDDPKWTLCLQVMLPNEYPGTAPPIYQLNAPWLKGQERADLSNSLEEIYIQNIGESILYLWVEKIRDVLIQKSQMTEPGPDVKKKTEEEDVECEDDLILACQPESSVKALDFDISETRTEVEVEELPPIDHGIPITDRRSTFQAHLAPVVCPKQVKMVLSKLYENKKIASATHNIYAYRIYCEDKQTFLQDCEDDGETAAGGRLLHLMEILNVKNVMVVVSRWYGGILLGPDRFKHINNCARNILVEKNYTNSPEESSKALGKNKKVRKDKKRNEH | soluble
MGSDKIHHHHHHMVVNALAVGCGLNVAPAQAHKFASNYHCFMVRRFDRTNAGRRLHFASAMTLTRHQDGEDASTGVSYLELADVLIRHGAQTNTDLKELWSRIVFNILVSNTDDHLRNHGYILIPGKGWRLSEAYDLNPVARSDGLKLNITENDNALDLELAREVAEYFRLGLTEADDIIANFRGIVSQWRIIAERLRLPGREQELMAEAFRGAI | not soluble
GMSRSPFQTFVWRSEIFECQSTDIQRFYSLLAIETERLGLGSKILGQAGHHPLYLLQSPGQKAGLPNLLISAGFHGEESAGPWGLLHFLSQLDGELFKRVNLSVLPLVNPTGFAKGHRFNELGENPNRGFFIENGKAKPGADTSAEGRILLEHAHLLQVASRDGILTCHEDVLMTDTYVYTFEPSQAPGRFSHSLRDALGQYFPIAADGDVDNCPVRSGVIFNHFDTSFESFLVRSGARVGCCSETPGQQPLDQRILANAAAMNTFVNMLAPELS | soluble
MRFKVVGKNIVVTEALKEAAVKKVGKLDKYFRRDAEATITMSVQKNRHIVEVTIPFEGGLLRAEEDSPDMYASIDKVIDSLERQIRRNKTKLEKKVHDGSLRFENIKFDDDEVEEEPKFEVVRTKKFAIKPMTVEEAILQMNLLGHQFFMFSNAETNEANVVYRRKDGNYGLIEPEF | not soluble
MSIYSKILVVADINHDEQPALARAMQLAQKSTSVSHITFFLSIYDFSYDMTSMLSLEERDAMRKGVIHQREQWMRSIAEPYLDKSVQFDIKVVWHNRPYEAIIGEIFAGEHDILIKATRKHDMLESVIFTPTDWHLMRKCPTPVLLVKNADWPENANIIASVHVGSELDTHIDLNDRMVEQLLNLSKRLGASPYLVNAYPVTPANITIELPEFDPTTYTDAVRGHHLTAMKALRQKHGLSEEQTLVQQGLPEDVIPEAAKQLNAAMVILGTTGRTGLSAVFIGNTAEHVIDKINCDVLALKPNGYVSPLDPQTAI | not soluble
MLRGIVVVDFSHYLPGPFASWRLAQLGAEVIKIEPPSGDRLRPFAEGRLFAAYNAGKKSIGLDLKTDAGREQARRLAARADVVIESFRPGVMARLGLGYDDMCRMNEQIIYCSISGFGQQSGRSLLGSHDLNYMALSGLLAQLADERGRPVHPKITLADFIGGMAAAERILAALFARERTGKGAHLDVSLVDGLAAMMAGHFAIEHGGGPKTGLSELSGEVVCYQLYETKDGRYMSLAALEPHFWRRFCEAVGHPEWTEAQWAPARSGEAVYDELAALFREKTLDEWSAFAEAVDVCLAPVLETGEAKALFADSRLRHLVRLQPGGVWTAAHGPDGQWGGGEPPKVNEHAHLVKGEE | not soluble
MEKNTIILGIETSCDETAVAVVKNGTEIIANVVASQIESHKRFGGVVPEIASRHHVEEITVVLEEALKEANITFDDIDAIAVTEGPGLVGALLIGVNAAKAVAFAHDIPLVGVHHIAGHIYANRLVKEVQFPLLSLVVSGGHTELVYMKEHGSFEVIGETRDDAAGEAYDKVARTLSMPYPGGPHIDRLAHEGKPTIDLPRAWLEPDSYDFSFSGLKSAVINTVHNAKQRGIEIAPEDLAASFQESVIDVLVTKASRAADAYNVKQVLLAGGVAANKGLRARLETEFAQKENVELIIPPLSLCTDNAAMIAAAGTIAYEQGKRATLALNANPGLDIEA | not soluble
MGHHHHHHSHMDQRQRRILGQPLSIPTSQPKQKRTSMISFFSKVSWKLRFQKREPLKNVFFILAERARDPSAKKRHMAMRNLGTMAYEAPDKVRKYKKIVLDLLVYGLYDPVNLEVIHESMKTLTVVLGKIQGKGLGSFFIDIALQTRTLLDDENDSLRYSAFVLFGQLAAFAGRKWKKFFTSQVKQTRDSLLIHLQDRNPQVAKACKTTFQACSPYLKLKEEYSFQSEEDQRNTKLYQQLSHYHPEILQFFYANKIL | not soluble
MKVYYECAPCFLRQAREAIDLATDDEELKLRVMENILELLSERFRRGQVSNELGTRMHRLIKDMTGSEDPYLDEKRRCNEIALRFLPTVRDYLECHSDLESHVKVAITGNIIDFGALGLDFDHDRGIQESLRAPLTINHVPLLEDRLREASEVLYLLDNTGEILFDRPLIEKLAGYDVSVKVAVKGEPILNDACMEDALEAGLDEVAEIVTTGTDSVGIVYSDLSDEFRDMLDGTELVIAKGMGNYEGLTEISDGSRDIFCLLNAKCSAIARDLGVARGDNVAVKI | not soluble
MCEQGVSYYNSQELKCCKLCKPGTYSDHRCDKYSDTICGHCPSDTFTSIYNRSPWCHSCRGPCGTNRVEVTPCTPTTNRICHCDSNSYCLLKASDGNCVTCAPKTKCGRGYGKKGEDEMGNTICKKCRKGTYSKTGHHHHHH | soluble
DLPGVVIFLHGVNDPGASYESVETGLCQGVNERLDRPDLVPGRYGGKYKEAGNVPYEKRDSDQKVILDDPDTYLYRRDASDPKTHSLLIPFYWGHRAAPDQIKRDDAGDPFRMRNQFQDINGNRLDRHFAKAGGFIANATNNIPDVYGEGFRPNLKSIALETFKPDNALYFGHSPARHYCVLAAHRLAMLIREIRRVSPDETITIMGHSQGTIVTLLAQALLVDGGDRCADTFIMVDTPYCVLPGNTPKDQDTFSTLVGIVTAITNMPHTQPAMSELRDAKTYCGRSGSRWLPTQGIRKNKVGSMTVFPERDNRGKVYLYFCPDDTTVSLDDVQ | not soluble
MEQKYEEDIQKLQQEIEMLEAEQEETLRSIFVQHGDRLQQGVKSACEERGGGGAQQHTLSKLITEVRELEKDLRRQTEINGITLNECFVKTLHKSERKLIQQLRLAGHCGLLLFQVEFAVTEIQEDNVLHRRVTELNIVVDGVEFKDFSAFVSRVEDTKDLLLFFRTLRTFSERCEDRRQTFQHFQEKYPDVVNLPEGCRSEIMIIRSPQLPGISMTLFWKIHVSKEGVVKPLLDLLLKMPDQALELDTKKVMEKASDYFQSLLQLLGVEASIEGLIRTVCS | not soluble
MGSSHHHHHHGGTGENLYFQGGSGPAREKAIVLIDGPALVHRWYHRWSYTTERYGTSLDVKQFAIKNARFMIATAHSFDPAHMAQHLLSPQTEYAHTPKHNRIIVCFDHGDGGRRQIYADYKANRLQKAVTSEFRLIERVAKKVFADEPRESLLVVPDCDAGLANLNAEADDMIATLAFFNQQNTRPTVVMSHDYDLYQLVDEAKKSYHYDIRTKHLVSERGVMERVGVPPKLVRDFKSLAGDSSDNIPGVNGIGKVRARNLLKKYGDLDGILFKGIKKETGHLGELLNEGAKMALISRQLVDFRMCPKVIKVCESFMRI | not soluble
MITQNIESLNNIAKIQHAANTDYLTDLANRRAFFRSAESRIKEYINKKVPYCLAMIDVDFFKKVNDTYGHDSGDQVLKVIALYMRKHFGAGLTARLGGEEFAVLLHGLDADYLHNKLDDFRREIAVSSIPAGDTSISITLSLGVVFDSEDELSKQMNEADNALYAAKENGRNQIVVFGAELDDLEHHHHHH | soluble
MGSDKIHHHHHHMITPTIRGGHEVNYLVAVEGAKVGDAIAIRVERIRVLSKAASSGVDSPREGSFVGDPYVAKKCPVCNEPWPEFEVVGIGEDAIRCKKCGAPVSPFRMINGYTMVFDHEGGVGVTVDKKTAEMIAKNAWEWHALPKNSKQVPILIFAKADIVGVPSRIRPFLGQLGTIPAVDIPDSHNAGDFGYFLINAPHPYAISKEDYETKLTDGHLDVDSVREGAIVIAPVKVEGGGVYAGDAHAMEGDGEVAGHTTDVTAETTVTVEVIKGLNLEGPILLPPEEDLPPLAKPWRKDEWEKVERLAKKFGIEVEPVAPLQIIGSGPTINDAALNGFKRAAKLFGMSVEEVKNRVTITGAVEIGRLPGIVQVSMQVPLRILEKLGIYELVVKHYNLPF | not soluble
MGSDKIHHHHHHMLPFLRSELARCQPYHPNPGGTGMAMDILDTNECPYDLPTDLKQTLADRYVEAIASNRYPDGSHTDLKAAIVDYLSEQTAGQWQPGPEHVTVGNGSDELIRSILIATCLGGQGSVLVAEPTFSMYGIVAETLGIPVVRIGRDPQTWEMDLAAAETAITQTEGTPVRLCFVVHPNSPTANPLTEAEKDWLRQVPPQILVVIDEAYFEFSGETLLAELPQHPNWLITRTFSKALRLAAHRVGYGIGDPQLIAALEAIRLPYNLPSVAQLAATLALEARSQLLSAIPRLITERDRLYRKLQVVSQLQVWPSASNFLFLKTQSSSQTAALAAQLKAQGTLVRHTADGLRITIGSPAENERTLAHLQTAITQSLPATV | not soluble
MSLASLCDLVGLPRSSFYRQSVFKVLEDQECETELRHQMQLICLEMPGYSYRRITAELHRRGWPVNHKRVLRLMRQDNLLCLRRKAFVRTTDSEHGFRVYPNLATNLMPSGLNQLWISDITYIRLQEEFVYLAIILDRYSRRVIGWSLSRHIDMELSLSALRMALSNREVLPGLIHHSDRGVQYASKAYIELLEEHKIAISMSRRGNPYDNAFAESFMKTLKYEEVLLNEYGDYREAQGNIARFIEEVYNRKRLHSSIGYLPPVEFEARVEHEISPASHPTEGHHHHHH | soluble
MLSAFTPRPLKRLFTANQCWTSFLDAGGLRDIEVEAVTKMLACGTRILGVKEYICDKPECPHVRYVTNSCGSRACPSCGKKATDLWIATQLNRLPDCDWVHLVFTLPDTQWPVFESNRWLLNDVCRLAVENLLYAARKRGQEPGIFCAIHTYGRRLNWHPHVHVSVTCGGLNKHGQWKKLSFLKDAMRSRWMWNMRQRLLKAWSEGLAMPESLSHITTESQRRSLVLKAGGKYWHVYMSKKTAGGRNTARYLGRYLKKPPIAASRLAHYNGGGA | not soluble
MLSAESLKQIDIELAKYPADQRRSAIMGALRIAQTEKGWLAPETIAFVADYIGISPAQAYEVATFYNMYDLEPVGKYKLTVCTNLPCALRGGMATGEYLKQKLGISYGETTPDGKFTLVEGECMGACGDAPVMLLNNHKMCSFMTEEAIEKKLAELELEHHHHHH | soluble
